Experiment [1] addresses IgA (monomeric serum IgA, coated on beads or plates) (human, UniProt P01876-1 1-353). The experiment is described as follows: cell-based or functional assay.
The target in experiment [2] is CD89 (Fc receptor for IgA) on polymorphonuclear cells (human, UniProt P24071 22-287). The experiment is described as follows: cell-based or functional assay.

Where no end group is shown, it is not given here.

Chain of CD89 (Fc receptor for IgA) on polymorphonuclear cells (P24071 22-287): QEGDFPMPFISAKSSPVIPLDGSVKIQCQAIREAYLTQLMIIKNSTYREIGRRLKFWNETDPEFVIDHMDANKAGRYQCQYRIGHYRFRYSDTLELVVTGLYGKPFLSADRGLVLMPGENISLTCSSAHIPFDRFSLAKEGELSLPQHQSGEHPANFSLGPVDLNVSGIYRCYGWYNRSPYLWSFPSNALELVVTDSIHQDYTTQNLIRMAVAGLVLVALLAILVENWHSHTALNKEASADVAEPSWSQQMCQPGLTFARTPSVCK
Chain of IgA (monomeric serum IgA, coated on beads or plates) (P01876 other isoform, or with tags, fused parts or gaps): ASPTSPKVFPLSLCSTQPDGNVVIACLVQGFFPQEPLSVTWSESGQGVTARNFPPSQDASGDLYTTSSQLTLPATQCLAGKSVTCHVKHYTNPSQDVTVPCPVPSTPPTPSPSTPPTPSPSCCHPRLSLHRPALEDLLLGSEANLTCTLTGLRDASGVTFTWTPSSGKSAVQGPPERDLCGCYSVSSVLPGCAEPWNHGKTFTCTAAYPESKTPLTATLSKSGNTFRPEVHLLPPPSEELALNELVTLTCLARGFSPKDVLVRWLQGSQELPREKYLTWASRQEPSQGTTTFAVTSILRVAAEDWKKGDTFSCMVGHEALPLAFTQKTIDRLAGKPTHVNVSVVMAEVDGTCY

REIGRRLKFWNETDP [Peptide Fc alpha 113]: the “percentage blocking (polymorphonuclear cells bound to IgA-coated beads, 2-D migration assay)” value in experiment [1] is no more than 19%.

For HEALPLAFTQK-NH2 [peptide IgA CH3], the “percentage blocking (polymorphonuclear cells bound to IgA-coated beads, 2-D migration assay)” value in experiment [2] is no more than 18%.

As for CSMVGHEALPLAFTQKC-NH2 (cysteine pairing not given here) [peptide PEO-47 mP2#2,3], the “percentage blocking (polymorphonuclear cells bound to IgA-coated beads, 2-D migration assay)” value in experiment [2] was no more than 20%.

The values above are taken from US20110104145A1 (published 2011).
